Data reported in paper doi:10.1101/2024.10.04.616749, “Structural basis for a nucleoporin exportin complex between RanBP2, SUMO1-RanGAP1, the E2 Ubc9, Crm1 and the Ran GTPase” (bioRxiv, 2024).

Tests used:
Settings in all cases: both partners purified
[1] = molecular target: Ran^Q69L(GTP) (human, UniProt P62826 1-216, Q69L); assay: SEC; analytical size exclusion chromatography of complexes I, II and III assembled from a RanBP2 variant, SUMO1-RanGAP1, Ubc9, Crm1 and Ran^Q69L(GTP); fractions on SDS-PAGE
[2] = molecular target: T1, Crm1 (full-length human) (human, UniProt O14980 1-1071); assay: as above
T1 construct: Crm1 (exportin-1), human, full length; also called exportin Crm1; source: E. coli BL21(DE3) SoluBL21 with Codon Plus (RIL) plasmid, purified (Ni-NTA, Ulp1 cleavage, SEC, MonoQ); not shown: His6-Smt3, N-terminal, cleaved
T1 sequence (O14980 whole entry): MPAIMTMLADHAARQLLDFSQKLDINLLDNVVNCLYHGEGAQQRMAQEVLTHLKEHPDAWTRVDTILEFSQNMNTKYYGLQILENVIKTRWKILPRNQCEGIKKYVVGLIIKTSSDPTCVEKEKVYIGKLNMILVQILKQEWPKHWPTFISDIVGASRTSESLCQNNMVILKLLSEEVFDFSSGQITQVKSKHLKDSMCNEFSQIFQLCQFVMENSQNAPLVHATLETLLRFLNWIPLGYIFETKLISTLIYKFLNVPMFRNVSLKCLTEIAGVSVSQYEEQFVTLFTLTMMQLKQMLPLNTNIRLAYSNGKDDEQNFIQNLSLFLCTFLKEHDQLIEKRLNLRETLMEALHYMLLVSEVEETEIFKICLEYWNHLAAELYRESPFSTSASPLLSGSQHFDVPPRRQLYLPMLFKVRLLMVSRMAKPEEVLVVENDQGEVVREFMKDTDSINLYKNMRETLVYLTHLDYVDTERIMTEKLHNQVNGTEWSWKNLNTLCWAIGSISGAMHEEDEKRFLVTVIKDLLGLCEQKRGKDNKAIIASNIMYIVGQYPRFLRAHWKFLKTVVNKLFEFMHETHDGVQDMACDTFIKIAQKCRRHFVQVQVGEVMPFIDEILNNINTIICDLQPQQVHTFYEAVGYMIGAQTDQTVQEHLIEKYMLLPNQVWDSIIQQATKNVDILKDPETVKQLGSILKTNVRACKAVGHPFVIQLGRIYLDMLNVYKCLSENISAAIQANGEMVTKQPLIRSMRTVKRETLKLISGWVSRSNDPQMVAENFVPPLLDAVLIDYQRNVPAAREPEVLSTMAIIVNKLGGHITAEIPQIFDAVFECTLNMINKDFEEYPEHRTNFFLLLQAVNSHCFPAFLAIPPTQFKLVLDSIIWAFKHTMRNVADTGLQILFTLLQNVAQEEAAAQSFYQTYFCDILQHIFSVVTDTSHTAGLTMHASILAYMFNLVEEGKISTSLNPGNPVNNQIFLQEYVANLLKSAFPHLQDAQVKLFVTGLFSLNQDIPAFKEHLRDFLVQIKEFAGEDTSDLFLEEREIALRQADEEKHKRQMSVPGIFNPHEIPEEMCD

[3] = molecular target: T1, Crm1 (full-length human); assay: cryo-EM structure; purified RanBP2^RBD4/SUMO1^Q94P-RanGAP1/Ubc9 incubated with excess Crm1 and Ran^Q69L(GTP), gel filtration in 20 mM HEPES pH 7.4, 110 mM potassium acetate, 2 mM magnesium acetate, 1 mM TCEP; lightly crosslinked with 250 uM BS3 for 30 min; 0.1% CHAPSO

| Binder | binding result [1] | binding result [2] | binding result [3] |
| --- | --- | --- | --- |
| RanBP2^2300–2910 (RanBP2^RBD3) (domain or fragment, human, UniProt P49792 2300-2910, looked up, RanBP2 (Nup358), human, residues 2300-2910: contains only RBD3 of the two RBDs; pET28b with a thrombin-cleavable His6 tag; no cleavage is described for the analytical gel filtration runs; source: E. coli BL21(DE3) Codon Plus (RIL), purified (Ni-NTA, SEC)) TQEEERDGQYFEPVVPLPDLVEVSSGEENEQVVFSHRAKLYRYDKDVGQWKERGIGDIKILQNYDNKQVRIVMRRDQVLKLCANHRITPDMTLQNMKGTERVWLWTACDFADGERKVEHLAVRFKLQDVADSFKKIFDEAKTAQEKDSLITPHVSRSSTPRESPCGKIAVAVLEETTRERTDVIQGDDVADATSEVEVSSTSETTPKAVVSPPKFVFGSESVKSIFSSEKSKPFAFGNSSATGSLFGFSFNAPLKSNNSETSSVAQSGSESKVEPKKCELSKNSDIEQSSDSKVKNLFASFPTEESSINYTFKTPEKAKEKKKPEDSPSDDDVLIVYELTPTAEQKALATKLKLPPTFFCYKNRPDYVSEEEEDDEDFETAVKKLNGKLYLDGSEKCRPLEENTADNEKECIIVWEKKPTVEEKAKADTLKLPPTFFCGVCSDTDEDNGNGEDFQSELQKVQEAQKSQTEEITSTTDSVYTGGTEVMVPSFCKSEEPDSITKSISSPSVSSETMDKPVDLSTRKEIDTDSTSQGESKIVSFGFGSSTGLSFADLASSNSGDFAFGSKDKNFQWANTGAAVFGTQSVGTQSAGKVGEDEDGSDEEVVHNEDI | binds | binds |  |
| RanBP2^2446–3060 (RanBP2^RBD4) (domain or fragment, human, UniProt P49792 2446-3060, looked up, RanBP2 (Nup358), human, residues 2446-3060: FG1, IR1-M-IR2, FG2 and RBD4; pET28b with a thrombin-cleavable His6 tag; no cleavage is described for the protein used in cryo-EM reconstitutions and analytical gel filtration; also called RanBP2 FG1-IR1-M-IR2-FG2-RBD4 fragment; hRanBP2^RBD4; source: E. coli BL21(DE3) Codon Plus (RIL), purified (Ni-NTA, SEC)) DSLITPHVSRSSTPRESPCGKIAVAVLEETTRERTDVIQGDDVADATSEVEVSSTSETTPKAVVSPPKFVFGSESVKSIFSSEKSKPFAFGNSSATGSLFGFSFNAPLKSNNSETSSVAQSGSESKVEPKKCELSKNSDIEQSSDSKVKNLFASFPTEESSINYTFKTPEKAKEKKKPEDSPSDDDVLIVYELTPTAEQKALATKLKLPPTFFCYKNRPDYVSEEEEDDEDFETAVKKLNGKLYLDGSEKCRPLEENTADNEKECIIVWEKKPTVEEKAKADTLKLPPTFFCGVCSDTDEDNGNGEDFQSELQKVQEAQKSQTEEITSTTDSVYTGGTEVMVPSFCKSEEPDSITKSISSPSVSSETMDKPVDLSTRKEIDTDSTSQGESKIVSFGFGSSTGLSFADLASSNSGDFAFGSKDKNFQWANTGAAVFGTQSVGTQSAGKVGEDEDGSDEEVVHNEDIHFEPIVSLPEVEVKSGEEDEEILFKERAKLYRWDRDVSQWKERGVGDIKILWHTMKNYYRILMRRDQVFKVCANHVITKTMELKPLNVSNNALVWTASDYADGEAKVEQLAVRFKTKEVADCFKKTFEECQQNLMKLQKGHVSLAAELSK | binds |  | binds |
| RanBP2^2300–3060 (RanBP2^RBD3–4) (domain or fragment, human, UniProt P49792 2300-3060, looked up, RanBP2 (Nup358), human, residues 2300-3060: RBD3, FG1, IR1-M-IR2, FG2 and RBD4; pET28b with a thrombin-cleavable His6 tag; no cleavage is described for the protein of the analytical gel filtration runs (it was cleaved for the SUMO conjugation assays); source: E. coli BL21(DE3) Codon Plus (RIL), purified (Ni-NTA, SEC)) TQEEERDGQYFEPVVPLPDLVEVSSGEENEQVVFSHRAKLYRYDKDVGQWKERGIGDIKILQNYDNKQVRIVMRRDQVLKLCANHRITPDMTLQNMKGTERVWLWTACDFADGERKVEHLAVRFKLQDVADSFKKIFDEAKTAQEKDSLITPHVSRSSTPRESPCGKIAVAVLEETTRERTDVIQGDDVADATSEVEVSSTSETTPKAVVSPPKFVFGSESVKSIFSSEKSKPFAFGNSSATGSLFGFSFNAPLKSNNSETSSVAQSGSESKVEPKKCELSKNSDIEQSSDSKVKNLFASFPTEESSINYTFKTPEKAKEKKKPEDSPSDDDVLIVYELTPTAEQKALATKLKLPPTFFCYKNRPDYVSEEEEDDEDFETAVKKLNGKLYLDGSEKCRPLEENTADNEKECIIVWEKKPTVEEKAKADTLKLPPTFFCGVCSDTDEDNGNGEDFQSELQKVQEAQKSQTEEITSTTDSVYTGGTEVMVPSFCKSEEPDSITKSISSPSVSSETMDKPVDLSTRKEIDTDSTSQGESKIVSFGFGSSTGLSFADLASSNSGDFAFGSKDKNFQWANTGAAVFGTQSVGTQSAGKVGEDEDGSDEEVVHNEDIHFEPIVSLPEVEVKSGEEDEEILFKERAKLYRWDRDVSQWKERGVGDIKILWHTMKNYYRILMRRDQVFKVCANHVITKTMELKPLNVSNNALVWTASDYADGEAKVEQLAVRFKTKEVADCFKKTFEECQQNLMKLQKGHVSLAAELSK | binds | binds |  |
